Test results reported in publication PMC9149119.
Where two headings read alike, the source gives them in different places.

T1: MsCAPP PP domain (MsPP111-328) (Marinitoga sp. 1137, UniProt PDB:7QAZ_1 1-219)
T1 sequence: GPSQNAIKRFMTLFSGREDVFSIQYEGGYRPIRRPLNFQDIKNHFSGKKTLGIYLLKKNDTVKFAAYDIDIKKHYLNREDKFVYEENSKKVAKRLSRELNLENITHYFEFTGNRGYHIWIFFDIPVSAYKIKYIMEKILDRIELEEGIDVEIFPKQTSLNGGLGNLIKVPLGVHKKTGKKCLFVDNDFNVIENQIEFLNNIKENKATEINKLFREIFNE

B1: dsDNA 6-mer (dsDNA)
DNA 1: CGTGCG
DNA 2: CGTGCG

Assays:
[1] = molecular target: T1, MsCAPP PP domain (MsPP111-328); test: X-ray crystallography
[2] = molecular target: T1, MsCAPP PP domain (MsPP111-328); test: X-ray crystallography; remark: listed apart in the source

| Binder | binding result [1] | binding result [2] |
| --- | --- | --- |
| B1 | binds |  |
| AAAAATCAA (ssDNA) [primer initiation template 9-mer] |  | binds |
